Positions count from the first letter of the chain named. Numbers in names are those of the source.
T1: Peptide C (bovine)
T1 sequence (peptide): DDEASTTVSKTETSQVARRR

B1: bovine GRK1 C-terminally truncated at residue 535 and tagged with hexahistidine (GRK1_(535)H6), wild type (enzyme)
chain: MDFGSLETVVANSAFIAARGSFDASSGPASRDRKYLARLKLPPLSKCEALRESLDLGFEGMCLEQPIGKRLFQQFLRTHEQHGPALQLWKDIEDYDTADDALRPQKAQALRAAYLEPQAQLFCSFLDAETVARARAGAGDGLFQPLLRAVLAHLGQAPFQEFLDSLYFLRFLQWKWLEAQPMGEDWFLDFRVLGRGGFGEVFACQMKATGKLYACKKLNKKRLKKRKGYQGAMVEKKILAKVHSRFIVSLAYAFETKTDLCLVMTIMNGGDIRYHIYNVDEDNPGFQEPRAIFYTAQIVSGLEHLHQRNIIYRDLKPENVLLDDDGNVRISDLGLAVELKAGQTKTKGYAGTPGFMAPELLLGEEYDFSVDYFALGVTLYEMIAARGPFRARGEKVENKELKQRVLEQAVTYPDKFSPASKDFCEALLQKDPEKRLGFRDGSCDGLRTHPLFRDISWRQLEAGMLTPPFVPDSRTVYAKNIQDVGAFSTVKGVAFEKADTEFFQEFASGTCPIPWQEEMIETGVFGDLNVWRPDG
B2: GRK1_(535)H6 L6A (enzyme)
chain: B1 chain with L6A
B3: GRK1_(535)H6 N12A (enzyme)
chain: B1 chain with N12A
B4: GRK1_(535)H6 A11E (enzyme)
chain: B1 chain with A11E
B5: GRK1_(535)H6 A18E (enzyme)
chain: B1 chain with A18E
B6: GRK1_(535)H6 V10A (enzyme)
chain: B1 chain with V10A
B7: GRK1_(535)H6 V9A (enzyme)
chain: B1 chain with V9A
B8: GRK1_(535)H6 E7A (enzyme)
chain: B1 chain with E7A
B9: GRK1_(535)H6 I16A (enzyme)
chain: B1 chain with I16A
B10: GRK1_(535)H6 F15A (enzyme)
chain: B1 chain with F15A

target: bovine rhodopsin, photoactivated (Rho*) (bovine) (UniProt P02699)
Chain of UniProt P02699 (P02699 whole entry): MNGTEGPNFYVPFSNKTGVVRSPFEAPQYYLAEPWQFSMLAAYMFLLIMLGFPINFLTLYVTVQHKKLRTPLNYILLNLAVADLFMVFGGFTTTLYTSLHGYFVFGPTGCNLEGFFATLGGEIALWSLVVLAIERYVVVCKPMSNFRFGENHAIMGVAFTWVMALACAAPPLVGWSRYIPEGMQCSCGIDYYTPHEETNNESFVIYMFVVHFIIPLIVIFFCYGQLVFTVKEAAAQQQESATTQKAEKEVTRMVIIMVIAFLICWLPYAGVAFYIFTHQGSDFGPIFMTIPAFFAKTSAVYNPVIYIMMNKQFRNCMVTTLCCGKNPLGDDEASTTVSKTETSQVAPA

decrease of the magnitude of the fluorescence change of Meta II decay [%]	Binder
35	B1

target: T1, Peptide C (bovine)

KM of peptide C phosphorylation [µM]	Binder
320	B1
280	B2
500	B3
310	B4
410	B5
390	B6
350	B7
410	B8
220	B9
350	B10

target: bovine rhodopsin, photoactivated (Rho*) (bovine) (UniProt P02699); remark: another data set of the same source

KM of ROS (Rho*) phosphorylation [µM]	Binder
3.4	B1
12	B2
20	B3
8.8	B4
6.1	B5
21	B6
18	B7
13	B8
9.5	B9
11	B10

— article PMC3069497
